Source: publication doi:10.64898/2025.12.29.696898

Biological target: GFP-EBP2 (human) (UniProt Q99848)
Test: FRET or BRET

UniProt Q99848, sequence (Q99848 whole entry): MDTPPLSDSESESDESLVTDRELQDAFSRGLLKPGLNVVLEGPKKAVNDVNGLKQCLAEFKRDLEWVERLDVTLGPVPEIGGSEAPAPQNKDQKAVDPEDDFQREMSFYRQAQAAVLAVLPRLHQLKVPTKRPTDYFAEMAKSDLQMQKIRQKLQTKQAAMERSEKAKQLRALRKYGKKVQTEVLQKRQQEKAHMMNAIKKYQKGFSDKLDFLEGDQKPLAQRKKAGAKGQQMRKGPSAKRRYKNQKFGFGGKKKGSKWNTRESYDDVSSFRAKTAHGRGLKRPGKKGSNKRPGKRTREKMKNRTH

Substance: EBNA-1-DsRed (from UniProt P03211 1-641) (natural protein)
- mean fluorescence intensity at 588 nm resulting from FRET: 167
- mean ratio of fluorescence intensity (FI 588 nm/ FI 588 nm + FI 513 nm): 0.4
